The results in this text go back to the RNAGym collection of RNA variant scans (doi:10.7554/elife.80360).

B1: Hairpin Ribozyme (parent)
chain: GUCCUCUUUCACGUGCGCGUGAAAGAGAGAAGUGAACCAGAGAAACACACGUUGUGGUAUAUUACCUGGUA

In this data set the parent is B1. As to the kind of experiment: self-cleavage, relative activity (ratio to wild type); higher = more cleavage; co-transcriptional.
Take U33C A43C: the self-cleavage was 0.

For the variant G15U A43G, the self-cleavage was 0.151.

Take C18U A39U: the self-cleavage is 0.429.

Regarding G34C G40U, the self-cleavage amounted to 0.541. Consider C50A U53C, for which the self-cleavage turned out to be 0.296.

Take A39U C65G: the self-cleavage worked out at 0.232. With A11G A43G the figure was 0.128; with A39C U53C, 0.42; with C37U C50A, 0.116. Turning to C37U C50U, the self-cleavage turned out to be 0.289. With G13A G32A the figure was 0.0965; with C18G C50A, 0.245. Next, A35C G54A: 0.483; A49G U60G: 0.547; C10G C18G: 0.621.

G25C A30C: the self-cleavage is 0.21. With U5C G15U, the self-cleavage amounted to 0.574. With G13C C16G, the self-cleavage is 0.407. For the variant C3G G40C, the self-cleavage stood at 0.147.

As to C3G G40U, the self-cleavage was 0.0655. Consider C16A G40U, for which the self-cleavage was 0.147. Regarding G27C A28U, the self-cleavage was found to be 0.138.

On to C3A G19U, for which the self-cleavage was found to be 0.582.

For C4A A45U, the self-cleavage came out at 0.148.

In the case of U2G A45U, the self-cleavage amounted to 0.0683. Next, G21C U58A: 0.577; A35C U60C: 1.14; G40A A61U: 0.177.

For the variant A36C C50G, the self-cleavage came to 0.131.

Turning to U9A C50U, the self-cleavage is 0.22. With G17A C48G, the self-cleavage was 0.102. On to G15C A28C, for which the self-cleavage stood at 0.407. With A43G U53G the figure was 0.226; with C18U A44C, 0.146. Next, C4A C16G: 0.236.

On to G21C A36C, for which the self-cleavage is 0.534. Regarding G51C U58G, the self-cleavage amounted to 0.433.

As for G17A C46A, the self-cleavage stood at 0.191.

Take A30C A49G: the self-cleavage was determined as 0.123.

With C4G A36G, the self-cleavage worked out at 0.248. Consider C4A A71G, for which the self-cleavage came to 0.346.

Consider C12A A43C, for which the self-cleavage was 0.257. Regarding A31C U67G, the self-cleavage was 0.0719. Take U9G U55A: the self-cleavage was 0.179. Turning to G19A U52G, the self-cleavage amounted to 0.735. In the case of A22G U53A, the self-cleavage was 0.926. On to A59C G69C, for which the self-cleavage came out at 0.216. Regarding C6G G34U, the self-cleavage was found to be 0.982. With A11C U55A the figure was 0.448; with A45G A64G, 0.1; with A11U C16U, 1.02. Regarding G57U U67C, the self-cleavage turned out to be 0.116. As to C4A A28G, the self-cleavage was 0.247. On to C4A A28C, for which the self-cleavage was determined as 0.0846. Consider A11G C38G, for which the self-cleavage amounted to 0.188. Next, A11G C38A: 0.213. With A24G C46A the figure was 0.107; with G40A A59C, 0.121. Next, A44U U55C: 0.168; G13U G27U: 0.215; U2A U7C: 0.273. G19U C50G: the self-cleavage was determined as 0.199. Regarding G19C A22U, the self-cleavage amounted to 0.487.

For the variant G27C C46U, the self-cleavage amounted to 0.106. Turning to C10G C37G, the self-cleavage stood at 0.372. For the variant G19C U63C, the self-cleavage was 0.168. For the variant U52G C66A, the self-cleavage came out at 0.189.

As to A22C U70A, the self-cleavage was 0.862.

Regarding A28C A39C, the self-cleavage turned out to be 0.238.

As for A45G U67A, the self-cleavage was determined as 0.0776.

For the variant C6A C50A, the self-cleavage came out at 0.223.

On to G32A A39U, for which the self-cleavage came to 0.108. Consider A30G C37A, for which the self-cleavage turned out to be 0.192. In the case of U55G G56C, the self-cleavage amounted to 0.107. With U7A A71G, the self-cleavage was 0.895. In the case of U14C C37A, the self-cleavage was 0.245. Take G21A A71C: the self-cleavage came to 1.23.

Take A22G A44C: the self-cleavage is 0.136. As for U60A A61U, the self-cleavage was determined as 0.17. For C16A C46U, the self-cleavage is 0.0901. Take C6U U9C: the self-cleavage was found to be 0.369.

For C16A G29C, the self-cleavage turned out to be 0.0987. For the variant A11G C46A, the self-cleavage was 0.0804. As to C10U U52G, the self-cleavage is 0.564. With A26G C65G the figure was 0.23. Regarding G51C U67G, the self-cleavage was 0.164. Consider G19U G56U, for which the self-cleavage was found to be 0.179. G27U U63G: the self-cleavage is 0.243. With C12U A41G the figure was 0.676; with G15U G25A, 0.703.

As to G27U U52A, the self-cleavage is 0.354. G1U C66U: the self-cleavage came to 0.0959. Take A47U G69A: the self-cleavage was determined as 0.107. With G25A U60A the figure was 0.626. For A31G C50U, the self-cleavage is 0.266. In the case of G19C A71G, the self-cleavage came to 1.07.

For the variant A49U G57A, the self-cleavage came out at 0.192.

For the variant G68A, the self-cleavage was found to be 0.282. Next, G1C A35C: 0.0578. Regarding C16U U33A, the self-cleavage came to 0.0953. Regarding C10U A31C, the self-cleavage amounted to 0.135. On to A43U G57A, for which the self-cleavage stood at 0.119.

For U20G U52G, the self-cleavage was 0.772. As for U8C A22U, the self-cleavage came out at 0.344.

A44G U70G: the self-cleavage was found to be 0.135. As for U33G G54U, the self-cleavage was determined as 0.0691. On to U33G G54A, for which the self-cleavage is 0.111.

Consider G27C U62C, for which the self-cleavage stood at 0.12. With A39G U58G, the self-cleavage stood at 0.114. G17U G51C: the self-cleavage was 1.17.

Take G42C G69C: the self-cleavage was determined as 0.145.

Regarding G51A U60A, the self-cleavage stood at 1.18.

On to A26U G54A, for which the self-cleavage came out at 0.318. For A23C A43C, the self-cleavage stood at 0.146. In the case of A45G G56C, the self-cleavage was 0.0912. As for G15U U70A, the self-cleavage was 0.96. Take A24G U52G: the self-cleavage amounted to 0.687. As for U8A G21A, the self-cleavage turned out to be 0.618.

As to A23C U55G, the self-cleavage is 0.359. Consider U8G C10A, for which the self-cleavage came to 0.725. With C3U A49U, the self-cleavage amounted to 0.214.

Regarding A30U C48G, the self-cleavage amounted to 0.118.

For C10A A30C, the self-cleavage is 0.122.

For the variant C38G A44U, the self-cleavage came out at 0.207.

As for U8C A28C, the self-cleavage is 0.691. Consider A41G U60G, for which the self-cleavage came out at 0.367.

For U5A G57U, the self-cleavage is 0.102. Next, G57A A61G: 0.169; C4A U67A: 0.155; A35C U63G: 0.286. On to C3G U33G, for which the self-cleavage stood at 0.156.

Turning to A11G A47U, the self-cleavage came out at 0.131. With A36G C46G the figure was 0.178; with G29U G56C, 0.162. Next, U8A C48A: 0.111.

Regarding U2A A71G, the self-cleavage was 0.405. Consider U2G A64U, for which the self-cleavage was found to be 0.0768. Take A24U C66G: the self-cleavage worked out at 0.207.

For G15A A35G, the self-cleavage turned out to be 0.934. With C50A A61C, the self-cleavage is 0.173. With C18G G21A the figure was 0.767; with U9G U70G, 0.539.

Consider A11C A61C, for which the self-cleavage was determined as 0.24. G13U U20C: the self-cleavage was found to be 1.03. With U9G A31U the figure was 0.1; with A47C U53G, 0.174; with C18G G54U, 0.449. As for C18A U52G, the self-cleavage came out at 0.86. For the variant G25U A61C, the self-cleavage was 0.231. Next, U2A U33C: 0.0635; G27U G51A: 0.307; C37G C48G: 0.0962. With G17C C37G, the self-cleavage came out at 0.362. For the variant G1C A49G, the self-cleavage came to 0.315. Take U2A U58C: the self-cleavage came out at 0.21. With G29C A49U, the self-cleavage came out at 0.109. With G13U A59U the figure was 0.181; with U33A A35C, 0.0785; with C3G G25A, 0.146. With C16U A61G, the self-cleavage was determined as 0.148. In the case of C10G G19C, the self-cleavage turned out to be 0.539.

C3G A24U: the self-cleavage was determined as 0.248. Take U33C A36G: the self-cleavage is 0.0993. For G21U C50U, the self-cleavage came out at 0.376. Take C18A A44U: the self-cleavage came out at 0.105.

On to U33G U60G, for which the self-cleavage worked out at 0.0365.

A30U U60A: the self-cleavage came out at 0.346.
